Measured values taken from patent publication US20250333531A1 (NORDIC NANOVECTOR ASA, published 2025).
Numbering of substitutions follows the chain as printed. Names and notes keep the numbering of the source.

T1: human CD37 (human, UniProt P11049 1-281)
T1 construct: whole, on cells; also called CD37 antigen
T1 sequence (looked up): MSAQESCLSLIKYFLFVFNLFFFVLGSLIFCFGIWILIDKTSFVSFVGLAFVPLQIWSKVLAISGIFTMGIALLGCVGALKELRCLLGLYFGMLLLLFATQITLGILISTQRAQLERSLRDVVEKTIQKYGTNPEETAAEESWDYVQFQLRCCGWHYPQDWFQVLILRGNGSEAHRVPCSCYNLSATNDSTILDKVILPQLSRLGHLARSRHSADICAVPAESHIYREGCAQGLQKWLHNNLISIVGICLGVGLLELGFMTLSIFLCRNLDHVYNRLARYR

T2: biotinylated truncated soluble human FcγRIIa-H131 (human, UniProt P12318 34-217, biotinylated)
T2 construct: extracellular domain; Bought
T2 sequence (looked up): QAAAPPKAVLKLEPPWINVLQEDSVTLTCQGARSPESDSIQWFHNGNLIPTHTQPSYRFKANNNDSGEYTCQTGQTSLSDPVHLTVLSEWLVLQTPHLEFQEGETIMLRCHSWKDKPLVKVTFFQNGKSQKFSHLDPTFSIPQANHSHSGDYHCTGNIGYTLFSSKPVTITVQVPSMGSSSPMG

T3: biotinylated truncated soluble human FcγRIIa-R131 (human, UniProt P12318 34-217, biotinylated)
T3 construct: extracellular domain; Bought
T3 sequence (looked up): T2 sequence (looked up) with H134R

T4: biotinylated truncated soluble human FcγRIIb (human, UniProt P31994 43-217, biotinylated)
T4 construct: extracellular domain; Bought
T4 sequence (looked up): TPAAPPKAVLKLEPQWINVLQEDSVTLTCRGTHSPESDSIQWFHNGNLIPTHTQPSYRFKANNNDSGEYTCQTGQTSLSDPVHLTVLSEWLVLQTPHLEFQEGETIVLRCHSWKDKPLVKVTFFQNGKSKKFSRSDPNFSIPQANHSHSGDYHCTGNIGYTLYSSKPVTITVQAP

B1: AH02895 (antibody, human IgG1, kappa, V domains shown)
VH: QIQLVQSGAEVVKPGASVKVSCKASGYSFTDYNMYWVKQAPGQRLEWMGYIDPYNGDTTYNQKFKGRATITRDTSASTAYIELSSLRSEDTAVYYCARSPYGHYAMDYWGQGTLVTVSS
VL: DIQMTQSPSSLSASVGDRVTITCKASQDVSTAVDWYQQKPGKAPKLLINWASTRHTGVPSRFSGSGSGTDYTLTISSMQPEDFATYYCRQHYSTPFTFGQGTKLEIKR
notes: Humanized IgG1 kappa; also called NNV020 #6
B2: NNV023 (antibody, human IgG1)
heavy: not shown
light: DIQMTQSPSSLSASVGDRVTITCKASQDVSTAVDWYQQKPGKSPKLLINWASTRHTGVPSRFSGSGSGTDYTLTISSLQPEDFATYYCRQHYSTPFTFGQGTKLEIKRTDAAPSVFIFPPSDEQLKSGTASVVCLLNNFYPREAKVQWKVDNALQSGNSQESVTEQDSKDSTYSLSSTLTLSKADYEKHKVYACEVTHQGLSSPVTKSFNRGEC
notes: Humanized IgG1 kappa, fucosylated; also called AH02871HC + AH02877LC + V110D; AH02871HC_2877LC-110D
B3: NNV024 (antibody, human IgG1)
heavy: not shown
light: B2 light
modifications: afucosylated N-glycan (GlymaxX technology)
notes: Humanized IgG1 kappa, same chains as NNV023, afucosylated; also called afucosylated NNV023; AH02871HC_2877LC-110D GlymaxX
B4: NNV003 (antibody, human IgG1, kappa)
heavy: not shown
light: DIVMTQSHKLLSTSVGDRVSITCKASQDVSTAVDWYQQKPGQSPKLLINWASTRHTGVPDRFTGSGSGTDYTLTISSMQAEDLALYYCRQHYSTPFTFGSGTKLEIKRTVAAPSVFIFPPSDEQLKSGTASVVCLLNNFYPREAKVQWKVDNALQSGNSQESVTEQDSKDSTYSLSSTLTLSKADYEKHKVYACEVTHQGLSSPVTKSFNRGEC
notes: Mouse/human IgG1 kappa chimera of lilotomab; also called chHH1; chimeric HH1

Columns and labels:
[1] = target: T1, human CD37; assay: competitive radioligand binding on Ramos cells against 177Lu-NNV009 (2.7 nM), gamma counting
Protocol: (§1) The Eppendorf LoBind tubes 1.5 mL were used to prepare dilutions (working concentrations) of Abs. As much as 0.2 mL of the cell suspension (800 000 cells/tube), after it has been cooled down for 30 min on ice, was aliquoted to glass 12×75 mm counting tubes. Each tube was pre-labeled with a code specifically determining each sample. The tubes with cells were maintained on ice for whole time course of the experiment except for the time when counted on the gamma counter. The tubes were agitated on a planetary shaker at 350 RPM, 4° C. (on ice) for 15 min. […] The tubes were placed on the planetary shaker (GL 064), on ice, and shaken for 4 hours at 350 RPM. After 3.5 hours past from the beginning of incubation, the samples were assayed on Wizard2 gamma counter using protocol “Lu-177 General” (all detectors except for the detector #3 were used). Upon completion the counting, the cells were washed with ice-cold 0.5 mL 0.5% BSAPBS three times. All the tubes were assayed on the Wizard2 gamma counter again using the same sequence and parameters as before the washing.

[2] = target: T1, human CD37; assay: competitive radioligand binding on Ramos cells; ratio to Ki of NNV009 (assumed 2.3)
Protocol: as §1

[3] = target: T1, human CD37; assay: competitive radioligand binding on Ramos cells; upper end tied by Table 18 to AH02895
[4] = target: FcγRIIIa-V158 on Promega Jurkat effector cells (UniProt P08637 17-254, limits assumed); assay: cell-based or functional assay
[5] = target: T1, human CD37; assay: competitive radioligand binding on Ramos cells; lower end tied by Table 18 to AH02871HC + AH02877LC + V110D
[6] = target: T1, human CD37; assay: reference to the competitive binding of Example 6
[7] = target: T2, biotinylated truncated soluble human …; assay: ELISA: IgG coated at 10000-4.5 ng/ml, biotinylated truncated soluble human FcγRIIa-H131 250 ng/ml pre-complexed with AP-streptavidin, absorbance 405 nm
Protocol: (§2) 96 well EIA/RIA plates (CorningCostar) were coated with 100 μl titrated amounts of IgG variants (10.000-4.5 ng/ml) diluted in PBS and incubated O/N at 4° C. Remaining surface area were blocked with PBS containing 0.05% T and 4% S for 1 h at RT. The plates were washed four times with PBS/T using a Hydrospeed™ plate washer (Tecan). […] Following washing as above, bound receptor was visualized by addition of phosphatase substrate (1 mg/ml in diethanolamine buffer) (Sigma Aldrich). The plates were developed for 15-20 min before the 405 nm absorption values were recorded using a TECAN Sunrise spectrophotometer (Tecan).

[8] = target: T5, biotinylated truncated soluble human FcγRIIIa-V158 (human, UniProt P08637 17-208, biotinylated); assay: ELISA: IgG coated at 10000-4.5 ng/ml, biotinylated truncated soluble human FcγRIIIa-V158 250 ng/ml pre-complexed with AP-streptavidin, absorbance 405 nm
T5 construct: extracellular domain; Bought
Protocol: as §2

[9] = target: T6, human complement factor C1q (human, UniProt P02745 23-245; P02746 28-253; P02747 29-245); assay: repeat ELISA: IgG coated at 20000-156.25 ng/ml, human C1q 360 ng/ml, detected with rabbit anti-human C1q and HRP anti-rabbit IgG (y axis printed as Absorbance 405 nm)
T6 construct: Bought
T6 sequence (P02745 23-245 limits assumed, chain 1 of 3): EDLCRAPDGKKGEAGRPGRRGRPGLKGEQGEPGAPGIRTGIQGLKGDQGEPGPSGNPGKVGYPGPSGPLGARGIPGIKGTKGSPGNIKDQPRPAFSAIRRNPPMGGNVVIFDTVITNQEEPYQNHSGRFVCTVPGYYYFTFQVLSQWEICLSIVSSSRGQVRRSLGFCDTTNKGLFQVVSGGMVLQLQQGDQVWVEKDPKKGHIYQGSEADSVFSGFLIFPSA
T6 sequence (P02746 28-253 limits assumed, chain 2 of 3): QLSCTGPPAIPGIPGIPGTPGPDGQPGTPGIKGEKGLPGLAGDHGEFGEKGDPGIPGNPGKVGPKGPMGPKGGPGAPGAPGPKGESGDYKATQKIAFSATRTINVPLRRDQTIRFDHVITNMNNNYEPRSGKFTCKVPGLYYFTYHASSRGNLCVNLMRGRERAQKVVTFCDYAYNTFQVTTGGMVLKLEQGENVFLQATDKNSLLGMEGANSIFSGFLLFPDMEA
T6 sequence (P02747 29-245 limits assumed, chain 3 of 3): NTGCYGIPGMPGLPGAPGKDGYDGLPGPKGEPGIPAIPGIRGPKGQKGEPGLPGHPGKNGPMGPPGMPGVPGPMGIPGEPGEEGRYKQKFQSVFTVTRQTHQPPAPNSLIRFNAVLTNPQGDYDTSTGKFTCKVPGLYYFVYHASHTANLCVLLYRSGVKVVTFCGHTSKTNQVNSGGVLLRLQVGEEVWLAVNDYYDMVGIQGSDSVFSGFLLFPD
Protocol: (§3) Remaining surface area were blocked with PBS containing 0.05% T and 4% S for 1 h at RT. The plates were then washed four times with PBS/T using a Hydrospeed™ plate washer (Tecan). Human C1q (Complement Technologies) diluted to 360 ng/ml in veronal buffer (Complement Technologies) were added and incubated for 30 min at 37° C. Detection of bound C1q was performed using a primary anti-human C1q antibody from rabbit (DAKO) diluted 1:10.000 in PBS/T/S and a secondary horseradish peroxidase (HRP) conjugated anti-rabbit IgG antibody diluted 1:5000 in PBS/T/S (GE Healthcare). Binding was visualized by addition of 100 μl TMB substrate (Calbiochem) for 15-20 min before the enzymatic reaction was stopped by addition of 50 μl 1 M HC1. The 450 nm absorption values were recorded using a Sunrise TECAN spectrophotometer (Tecan).

[10] = target: T6, human complement factor C1q; assay: ELISA: IgG coated at 20000-156.25 ng/ml, human C1q 360 ng/ml, detected with rabbit anti-human C1q and HRP anti-rabbit IgG (y axis printed as Absorbance 405 nm)
Protocol: as §3

[11] = target: T7, biotinylated truncated soluble human FcγRIIIa-F158 (human, UniProt P08637 17-208, biotinylated); assay: ELISA: IgG coated at 10000-4.5 ng/ml, biotinylated truncated soluble human FcγRIIIa-F158 250 ng/ml pre-complexed with AP-streptavidin, absorbance 405 nm
T7 construct: extracellular domain; Bought
Protocol: as §2

[12] = target: T8, biotinylated soluble human FcRn (human, UniProt P55899 24-297; P61769 21-119, biotinylated); assay: ELISA: IgG coated at 1000-0.45 ng/ml, biotinylated soluble human FcRn 250 ng/ml pre-complexed with AP-streptavidin, pH 6.0, absorbance 405 nm
T8 construct: extracellular domain; Bought; Beta-2-microglobulin is not mentioned; Used as preformed complex with AP-streptavidin
T8 sequence (P55899 24-297 limits assumed, chain 1 of 2): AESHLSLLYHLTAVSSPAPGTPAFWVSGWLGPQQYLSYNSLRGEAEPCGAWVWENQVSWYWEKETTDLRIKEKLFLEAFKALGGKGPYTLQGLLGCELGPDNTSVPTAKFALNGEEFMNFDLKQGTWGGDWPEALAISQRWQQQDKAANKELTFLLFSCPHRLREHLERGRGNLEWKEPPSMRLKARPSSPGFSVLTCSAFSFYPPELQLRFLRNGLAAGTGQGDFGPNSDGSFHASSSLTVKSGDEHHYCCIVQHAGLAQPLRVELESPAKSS
T8 sequence (P61769 21-119 limits assumed, chain 2 of 2): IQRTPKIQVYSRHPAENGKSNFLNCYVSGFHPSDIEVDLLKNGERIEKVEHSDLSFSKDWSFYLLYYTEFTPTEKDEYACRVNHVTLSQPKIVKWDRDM
Protocol: Remaining surface area were blocked with PBS containing 0.05% T and 4% S for 1 h at RT. The plates were washed four times with PBS/T using a Hydrospeed™ plate washer (Tecan). […] Following washing as above with PBS/T or FcRn binding buffer ([…], 0.1 M NaCl, 0.05% T, pH 6.0), bound receptor was visualized by addition of phosphatase substrate (1 mg/ml in diethanolamine buffer) (Sigma Aldrich). The plates were developed for 20-30 min before the 405 nm absorption values were recorded using a TECAN Sunrise spectrophotometer (Tecan).

[13] = target: T3, biotinylated truncated soluble human …; assay: ELISA: IgG coated at 10000-4.5 ng/ml, biotinylated truncated soluble human FcγRIIa-R131 250 ng/ml pre-complexed with AP-streptavidin, absorbance 405 nm
Protocol: as §2

[14] = target: T4, biotinylated truncated soluble human …; assay: ELISA: IgG coated at 10000-4.5 ng/ml, biotinylated truncated soluble human FcγRIIb 250 ng/ml pre-complexed with AP-streptavidin, absorbance 405 nm
Protocol: as §2

[15] = target: T9, biotinylated truncated soluble human FcγRI (human, UniProt P12314 16-292, biotinylated); assay: ELISA: IgG coated at 10000-4.5 ng/ml, biotinylated truncated soluble human FcγRI 250 ng/ml pre-complexed with AP-streptavidin, absorbance 405 nm
T9 construct: extracellular domain; Bought; preformed complex with AP-streptavidin
T9 sequence (P12314 16-292): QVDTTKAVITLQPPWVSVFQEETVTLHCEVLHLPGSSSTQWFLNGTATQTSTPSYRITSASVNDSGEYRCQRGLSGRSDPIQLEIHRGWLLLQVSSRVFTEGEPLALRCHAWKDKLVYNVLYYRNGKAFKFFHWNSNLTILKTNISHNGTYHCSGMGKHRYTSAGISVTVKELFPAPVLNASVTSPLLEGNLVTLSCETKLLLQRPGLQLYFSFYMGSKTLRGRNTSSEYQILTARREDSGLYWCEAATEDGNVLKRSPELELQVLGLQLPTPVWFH
Protocol: as §2

[16] = target: T10, biotinylated truncated soluble human FcγRIIIb (human, UniProt O75015 17-200, limits assumed, biotinylated); assay: ELISA: IgG coated at 10000-4.5 ng/ml, biotinylated truncated soluble human FcγRIIIb 250 ng/ml pre-complexed with AP-streptavidin, absorbance 405 nm
T10 construct: extracellular domain; Bought
T10 sequence (O75015 17-200 limits assumed): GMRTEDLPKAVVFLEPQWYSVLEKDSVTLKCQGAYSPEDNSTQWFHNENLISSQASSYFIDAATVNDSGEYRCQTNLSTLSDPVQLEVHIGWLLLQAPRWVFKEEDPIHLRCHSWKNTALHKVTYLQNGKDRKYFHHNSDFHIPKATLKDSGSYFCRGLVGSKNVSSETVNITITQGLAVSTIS
Protocol: as §2

Binder	EC50 [1] [nM]	Ki [1] [nM]	Ki(NNV009)/Ki(NNV020 var.) [2] [fold]	average potency of the ADCC response (Example 13) [4] [nM]	EC50 (read off the curve) [7] [µg/mL]	EC50 (read off the curve) [9] [µg/mL]	EC50 (read off the curve) [10] [µg/mL]	EC50 (read off the curve) [11] [µg/mL]	EC50 (read off the curve) [12] [µg/mL]	EC50 (read off the curve) [13] [µg/mL]	EC50 (read off the curve) [14] [µg/mL]	EC50 (read off the curve) [15] [µg/mL]	also measured
B1	0.718	0.33	6.97										fold affinity relative to NNV009 [3]: 4 to 7 fold
B2	1.24	0.571	4.03	3									efficacy (Emax) relative to NNV024, ADCC FcγRIIIa-158V reporter assay [4]: 75%; potency (EC50) relative to rituximab, ADCC FcγRIIIa-158V reporter assay [4]: ~7 fold; fold affinity relative to NNV009 [5]: 4 to 7 fold
B3				0.6	~0.3	~2	~3	~0.2	~0.04	~0.8	~0.7	~0.4	ADCC signaling at 1 µg/mL relative to obinutuzumab, patient-derived CLL cells [4]: ~3 fold; average Emax relative to rituximab, ADCC FcγRIIIa-158V reporter assay, ten B-NHL cell lines [4]: 1.36 fold; average potency (EC50) relative to rituximab, ADCC FcγRIIIa-158V reporter assay [4]: 35.5 fold; binding result [6]: binds; EC50 (read off the curve) [8]: ~0.6 µg/mL; EC50 (read off the curve) [16]: ~0.4 µg/mL
B4					~0.3	~1	~3	~0.5	~0.04	~0.8	~0.7	~0.4	
